In one data set the target is mono-ubiquitin (UniProt P0CG48 1-76). Put plainly: crystal structure.
The data set “SEC-MALS” deals with the molecule itself. Briefly: SEC-MALS. In general terms: Size exclusion chromatography separates by hydrodynamic size, large species first.

B1: 2CARD^RIG-I(E52A) (domain or fragment, human, UniProt O95786 1-188, looked up)
chain: MTTEQRRSLQAFQDYIRKTLDPTYILSYMAPWFREEEVQYIQAEKNNKGPMAAATLFLKFLLELQEEGWFRGFLDALDHAGYSGLYEAIESWDFKKIEKLEEYRLLLKRLQPEFKTRIIPTDIISDLSECLINQECEEILQICSTKGMMAGAEKLVECLLRSDKENWPKTLKLALEKERNKFSELWIV
Take B1: in the data set with mono-ubiquitin, the binding result was “binds”.

B2: 2CARD^RIG-I(E52A)-CARD^MAVS(KKK) fusion protein, 42 aa linker (other)
chain: MTTEQRRSLQAFQDYIRKTLDPTYILSYMAPWFREEEVQYIQAEKNNKGPMAAATLFLKFLLELQEEGWFRGFLDALDHAGYSGLYEAIESWDFKKIEKLEEYRLLLKRLQPEFKTRIIPTDIISDLSECLINQECEEILQICSTKGMMAGAEKLVECLLRSDKENWPKTLKLALEKERNKFSELWIVMPFAEDKTYKYICRNFSNFCNVKVVKILPYLPCLTARDQDRLRATCTLSGNRDTLWHLFNTLQRRPGWVEYFIAALRGCKLVDLADEVASVYQSYQP
What is called stoichiometry N is a count of units in the complex or per binding partner. As for B2, in the data set “SEC-MALS”, the “stoichiometry N” value amounted to 4.
